In US20190314526A1:

Experiments:
[1] = molecular target: AAV-2 capsid mutant E411A/T413A/G449A/N450A (rAAV-2 virion) (AAV-2) (UniProt P03135); assay: all-human IgG ELISA, against wild type
[2] = molecular target: AAV-2 capsid mutant D357E (rAAV-2 virion) (AAV-2) (UniProt P03135); assay: all-human IgG ELISA, against wild type
[3] = molecular target: AAV-2 capsid mutant N568K (rAAV-2 virion) (AAV-2) (UniProt P03135); assay: all-human IgG ELISA, against wild type
[4] = molecular target: AAV-2 capsid mutant R334A/G449A/N568A (rAAV-2 virion) (AAV-2) (UniProt P03135); assay: all-human IgG ELISA, against wild type
[5] = molecular target: AAV-2 capsid mutant D132N (rAAV-2 virion) (AAV-2) (UniProt P03135); assay: all-human IgG ELISA, against wild type
[6] = molecular target: AAV-2 capsid mutant E411A/T413A (rAAV-2 virion) (AAV-2) (UniProt P03135); assay: all-human IgG ELISA, against wild type
[7] = molecular target: AAV-2 capsid mutant H134Q (rAAV-2 virion) (AAV-2) (UniProt P03135); assay: all-human IgG ELISA, against wild type
[8] = molecular target: AAV-2 capsid mutant N360H (rAAV-2 virion) (AAV-2) (UniProt P03135); assay: all-human IgG ELISA, against wild type
[9] = molecular target: AAV-2 capsid mutant N568A (rAAV-2 virion) (AAV-2) (UniProt P03135); assay: all-human IgG ELISA, against wild type
[10] = molecular target: AAV-2 capsid mutant R334A (rAAV-2 virion) (AAV-2) (UniProt P03135); assay: all-human IgG ELISA, against wild type
[11] = molecular target: AAV-2 capsid mutant H372Q (rAAV-2 virion) (AAV-2) (UniProt P03135); assay: all-human IgG ELISA, against wild type
[12] = molecular target: AAV-2 capsid mutant G449A/N568A (rAAV-2 virion) (AAV-2) (UniProt P03135); assay: all-human IgG ELISA, against wild type
[13] = molecular target: AAV-2 capsid mutant H372K (rAAV-2 virion) (AAV-2) (UniProt P03135); assay: all-human IgG ELISA, against wild type
[14] = molecular target: AAV-2 capsid mutant N568A/V571A (rAAV-2 virion) (AAV-2) (UniProt P03135); assay: all-human IgG ELISA, against wild type
[15] = molecular target: AAV-2 capsid mutant R334A/N568A (rAAV-2 virion) (AAV-2) (UniProt P03135); assay: all-human IgG ELISA, against wild type
[16] = molecular target: AAV-2 capsid mutant E393D (rAAV-2 virion) (AAV-2) (UniProt P03135); assay: all-human IgG ELISA, against wild type
[17] = molecular target: AAV-2 capsid mutant G246A (rAAV-2 virion) (AAV-2) (UniProt P03135); assay: all-human IgG ELISA, against wild type
[18] = molecular target: AAV-2 capsid mutant R334A/G449A (rAAV-2 virion) (AAV-2) (UniProt P03135); assay: all-human IgG ELISA, against wild type
[19] = molecular target: AAV-2 capsid mutant S130T (rAAV-2 virion) (AAV-2) (UniProt P03135); assay: all-human IgG ELISA, against wild type
[20] = molecular target: AAV-2 capsid mutant S130A (rAAV-2 virion) (AAV-2) (UniProt P03135); assay: all-human IgG ELISA, against wild type
[21] = molecular target: AAV-2 capsid mutant T413K (rAAV-2 virion) (AAV-2) (UniProt P03135); assay: all-human IgG ELISA, against wild type
[22] = molecular target: AAV-2 capsid mutant G449A (rAAV-2 virion) (AAV-2) (UniProt P03135); assay: all-human IgG ELISA, against wild type
[23] = molecular target: AAV-2 capsid mutant V571K (rAAV-2 virion) (AAV-2) (UniProt P03135); assay: all-human IgG ELISA, against wild type
[24] = molecular target: AAV-2 capsid mutant E411A/T413A/G449A/N450A (rAAV-2 virion) (AAV-2) (UniProt P03135); assay: cell-based or functional assay
[25] = molecular target: AAV-2 capsid mutant H134Q (rAAV-2 virion) (AAV-2) (UniProt P03135); assay: cell-based or functional assay
[26] = molecular target: AAV-2 capsid mutant W365A (rAAV-2 virion) (AAV-2) (UniProt P03135); assay: cell-based or functional assay
[27] = molecular target: AAV-2 capsid mutant G449A (rAAV-2 virion) (AAV-2) (UniProt P03135); assay: cell-based or functional assay
[28] = molecular target: AAV-2 with a wild-type capsid (rAAV-2 virion) (AAV-2) (UniProt P03135); assay: all-human IgG ELISA, virus needed for half maximal OD, against wild type

## purified human IgG from >10,000 donors (Panglobulin, ZLB Bioplasma AG)
[1]
  Fold decrease in binding of human IgG: 1 fold
[2]
  Fold decrease in binding of human IgG: 1 fold
[3]
  Fold decrease in binding of human IgG: 1 fold
[4]
  Fold decrease in binding of human IgG: 1 fold
[5]
  Fold decrease in binding of human IgG: 1 fold
[6]
  Fold decrease in binding of human IgG: 1 fold
[7]
  Fold decrease in binding of human IgG: 1 fold
[8]
  Fold decrease in binding of human IgG: 1 fold
[9]
  Fold decrease in binding of human IgG: 1 fold
[10]
  Fold decrease in binding of human IgG: 1 fold
[11]
  Fold decrease in binding of human IgG: 1 fold
[12]
  Fold decrease in binding of human IgG: 1 fold
[13]
  Fold decrease in binding of human IgG: 1 fold
[14]
  Fold decrease in binding of human IgG: 1 fold
[15]
  Fold decrease in binding of human IgG: 1 fold
[16]
  Fold decrease in binding of human IgG: 1 fold
[17]
  Fold decrease in binding of human IgG: 1 fold
[18]
  Fold decrease in binding of human IgG: 1 fold
[19]
  Fold decrease in binding of human IgG: 1 fold
[20]
  Fold decrease in binding of human IgG: 1 fold
[21]
  Fold decrease in binding of human IgG: 1 fold
[22]
  Fold decrease in binding of human IgG: 1 fold
[23]
  Fold decrease in binding of human IgG: 10 fold
[24]
  Fold decrease in neutralizing titer: 1 fold
[25]
  Fold decrease in neutralizing titer: 1.5 fold
[26]
  Fold decrease in neutralizing titer: 10.4 fold
[27]
  Fold decrease in neutralizing titer: 2.5 fold
[28]
  Fold decrease in binding of human IgG: 1 fold
